Measurements as given in patent US10293027B2, “Methods for treating metabolic disorders using FGF” (Salk Institute for Biological Studies, priority 2010, dated 2019).
Entries after “also recorded” stand apart in the source; their conditions may differ.

What was measured:
ob/ob mice [1] = assay: Acute effects of FGF-1 on blood glucose: dose response and time courses after s.c. and i.v. administration (Example 6); type: in vivo, mouse; details: for duration of blood glucose reduction after intravenous administration: 0.2 mg/kg i.v.
Procedure: FIG. 8. Dose response effect of FGF-1 (s.c., mg/kg) on blood glucose levels of ob/ob mice.
FIG. 9. Effect of FGF-1 (s.c., 0.5 mg/kg) on blood glucose levels of ob/ob mice.
FIG. 10. Effect of intravenous FGF1 (0.2 mg/kg) on blood glucose levels of ob/ob mice.
In order to establish the acute effects of FGF-1 on blood glucose levels, dose response curves (FIG. 8) and time courses after subcutaneous (FIG. 9) and intravenous (FIG. 10) administration were performed.

[2] = system: Glucose Transporter 1 (Glut1); assay: Glut1 expression in 3T3-L1 adipocytes; type: cell-based, mouse
Procedure: FIGS. 6A-6B. FGF-1 and rosiglitazone stimulation of Glut1 expression in 3T3-L1 adipocytes. 3T3-L1 adipocytes were treated with FGF-1 (+=50 ng/ml, ++=100 ng/ml), rosiglitazone (1 μM), or in combination. (A) mRNA (top) and protein (bottom) levels of Glucose Transporter 1 (Glut1); (B) mRNA (top) and protein (bottom) levels of Glucose Transporter 4 (Glut4).
3T3-L1 mouse pre-adipocytes were from American Type Culture Collection (ATCC, Rockville, Md.). Cells were maintained at sub-confluence in growth medium (GM) containing 10% calf serum in Dulbecco's modified Eagle's medium (DMEM) at 37° C. and 5% CO2. For standard adipocyte differentiation, cells were stimulated at 2 days post confluency (referred as day 0) with differentiation medium (DM) containing 10% fetal bovine serum (FBS), 5 μg/ml insulin, 1 μM dexamethasone, and […] 3-isobutyl-1-methylxanthine (IBMX) for 48 hours. […]
Total RNA was isolated from mouse tissue and cells using TRIzol reagent (Invitrogen). cDNA was synthesized from 1 μg of DNase-treated total RNA using SuperScript II reverse transcriptase (Invitrogen). mRNA levels were quantified by QPCR with SYBR Green (Invitrogen). Samples were run in technical triplicates, and relative mRNA levels were calculated by using the standard curve methodology and normalized against 36B4 mRNA levels in the same samples.

ob/ob mice [3] = assay: Chronic FGF-1 treatment for 36 days: glucose, food intake, body composition, serum lipids, liver (Examples 7-10); type: in vivo, mouse
Procedure: Blood was collected by tail bleeding either in the ad libitum fed state or following overnight fasting. Free fatty acids (Wako), triglycerides (Thermo), and cholesterol (Thermo) were measured using enzymatic colorimetric methods following the manufacturer's instructions. Serum insulin levels were measured using an Ultra Sensitive Insulin ELISA kit (Crystal Chem). Serum adiponectin levels were measured by ELISA (Millipore). Plasma adipokine levels were measured using a Milliplex™ MAP kit (Millipore).
Tissues were fixed in 4% phosphate-buffered formalin, embedded in paraffin, sectioned at 4 μm, and stained with hematoxylin and eosin according to standard procedures. For immunohistochemistry, tissues were deparaffinized in xylene and rehydrated. Slides were incubated with 5% normal donkey serum in PBS (+0.2% Triton-X100 and 1% BSA) for 30 min, and subsequently sections were incubated overnight with a 1:200 dilution of primary antibodies at 4° C. and using Alexa Fluor 488 or 595 as secondary antibodies for 2 hrs at RT.
In Example 5, ob/ob male mice (8 wk old) were randomized into three groups and treated with daily subcutaneous (s.c.) injections of recombinant mouse FGF-1 (0.5 mg/kg in PBS), oral rosiglitazone (TZD, 5 mg/kg in 0.5% carboxymethyl cellulose), or vehicle. Blood glucose levels were measure in fed animals one hour after treatment. Total body composition analysis was performed using an EchoMRI-100™ (Echo Medical Systems, LLC).
To investigate the metabolic effects of chronic FGF-1 treatment in ob/ob mice, eight weeks old male ob/ob mice were treated with vehicle or recombinant mouse FGF-1 (0.5 mg/kg/3 days, s.c.) for a period of 36 days. During this time, glucose levels, food intake, and body composition were monitored.

ob/ob mice [4] = assay: Insulin tolerance test after 4 weeks of chronic FGF-1 administration; type: in vivo, mouse; details: after 4 weeks of chronic administration
Procedure: Glucose tolerance tests (GTT) were conducted after overnight fasting. Mice were injected intraperitoneally (i.p.) with 1 g of glucose per/kg body weight, and blood glucose was monitored at 0, 15, 30, 60, 90, and 120 min using a OneTouch Ultra glucometer (Lifescan Inc). Insulin tolerance tests (ITT) were conducted after overnight fasting. Mice were injected i.p. with 0.5 U of insulin/kg body weight (Humulin R; Eli Lilly), and blood glucose was monitored at 0, 15, 30, 60, 90, and 120 min using a OneTouch Ultra glucometer (Lifescan Inc). Real-time metabolic analyses were conducted in an undisturbed room under 12 h/12 h light/dark cycles using a Comprehensive Lab Animal Monitoring System (Columbus Instruments).
These tests were carried out as described above.

[5] = after the 36 day treatment period

- EC50 of glucose lowering effect (ob/ob mice [1]; s.c., blood glucose of ob/ob mice, dose response): 0.25 mg/kg
B1: FGF-1: recombinant mouse FGF-1 (acidic fibroblast growth factor), a secreted protein that binds heparin and FGF receptors (protein, UniProt P61148 16-155, looked up)
Fibroblast growth factor 1: FNLPLGNYKKPKLLYCSNGGHFLRILPDGTVDGTRDRSDQHIQLQLSAESAGEVYIKGTETGQYLAMDTEGLLYGSQTPNEECLFLERLEENHYNTYTSKKHAEKNWFVGLKKNGSCKRGPRTHYGQKAILFLPLPVSSD
- duration of blood glucose reduction after intravenous administration (ob/ob mice [1]; ob/ob mice): significantly reduced blood glucose for at least one week; also recorded: much longer lasting (at least one week)
- duration of blood glucose reduction after intravenous administration (ob/ob mice [1]; ob/ob mice, listed as FGF1): last up to one week
- dose dependence of glucose reduction (ob/ob mice [1]; ob/ob mice): dramatic dose-dependent reduction of glucose levels
- dose at which maximum glucose lowering effects are reached (ob/ob mice [1]; s.c., ob/ob mice): 0.5 mg/kg
- onset of effect of subcutaneous dosing (ob/ob mice [1]; s.c., ob/ob mice): effective within a matter of hours
- expression of GLUT1 in combination with rosiglitazone ([2]; 3T3-L1 adipocytes, FGF-1 plus rosiglitazone (1 μM)): acts synergistically with rosiglitazone
- expression of GLUT1 ([2]; mouse 3T3-L1 adipocytes, prolonged treatment, FGF-1 50 or 100 ng/ml): induces the expression of GLUT1
- blood glucose under chronic treatment (ob/ob mice [3]; 0.5 mg/kg every third day s.c., 36 days): glucose levels are normalized by the first time point tested (day 2) and remain stable for the remainder of the test period; also recorded: completely normalized blood glucose
- body weight / weight gain (ob/ob mice [3]; 0.5 mg/kg/3 days s.c.): remains lower than in untreated ob/ob mice; also recorded: reduced weight gain during the first week
- food intake (ob/ob mice [3]; 0.5 mg/kg/3 days s.c.): initially results in reduced food intake; also recorded: reduced food intake during the first 1-2 weeks of chronic administration, but after two weeks food intake returned to normal
- percent lean mass (ob/ob mice [3]; 0.5 mg/kg/3 days s.c.): significantly higher than in untreated mice; also recorded: increased lean mass as compared with control mice
- total percent body fat (ob/ob mice [3]; 0.5 mg/kg/3 days s.c.): reduced percentage body fat; also recorded: reduced increase in percent body fat
- hepatic glycogen (ob/ob mice [3]; [5]): much higher; also recorded: increased levels of hepatic glycogen
- hepatic steatosis (H&E staining of liver) (ob/ob mice [3]; [5]): much less steatosis, and little if any inflammation; also recorded: Steatosis is dramatically reduced compared to control
- insulin tolerance / insulin sensitivity (ITT) (ob/ob mice [4]): increased insulin sensitivity
